± gives the half width of the 95% confidence interval.

Data set [1] in a line: folding stability dG unfold from trypsin proteolysis; higher = more stable. The gist of the method:
(§1)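 Unfolding free energy was derived, per protease or combined, against a sequence-predicted unfolded-state K50 and a shared folded-state K50, starting from K50 inferred by Bayesian fitting of sequencing counts. Digestion with trypsin and chymotrypsin was carried out on designed mini-proteins under 80 residues without cysteine in a PA-tagged cDNA display construct. Only designs with AlphaFold2 dimer inter-PAE above 15 were kept.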

Data set [2] in a line: folding stability dG unfold from chymotrypsin proteolysis; higher = more stable. The method in brief: as §1
Data set [3] in a line: folding stability dG unfold (combined trypsin and chymotrypsin); higher = more stable. The method in brief:
as §1

“SAGGSAGGSAGGKKVTITITIKVKEGEEITINGKKITVKPGETITITITITVPPKKKKKSAGGSAGGSAGGS [r10_949_TrROS_Hall]”: the “folding stability dG unfold” value is 1.57 ± 0.13 kcal/mol in data set [1], 2.38 ± 0.31 kcal/mol in data set [2] and 2.19 ± 0.41 kcal/mol in data set [3].
As to “SAGGSAGGSAGGKKVYKVPSLEEALELAKKNKGKTVEIEVDGKKYKFNKNGKIVEIEPVKSAGGSAGGSAGG [r7_532_TrROS_Hall]”, the “folding stability dG unfold” value was found to be 1.36 ± 0.084 kcal/mol in data set [1], 2.38 ± 0.075 kcal/mol in data set [2] and 2.14 ± 0.12 kcal/mol in data set [3].
Turning to “SAGGSAGGSAGGKLILKVKVEVVSVKVEPLPGVPGEVKVEVEVKVEVELIEVSEEELKSSAGGSAGGSAGGS [r10_654_TrROS_Hall]”, the “folding stability dG unfold” value came to 1.88 ± 0.26 kcal/mol in data set [1], 2.34 ± 0.098 kcal/mol in data set [2] and 2.19 ± 0.18 kcal/mol in data set [3].
For “SAGGSAGGSAGGKLIVLPVTSDEVFDFGDGPIPVPAGSIVVLEISPDGAKALVFSPEDLSAGGSAGGSAGGS [r10_353_TrMRF]”, the figures for the “folding stability dG unfold” value in data set [1], in data set [2] and in data set [3] were 1.12 ± 0.021 kcal/mol, 0.886 ± 0.065 kcal/mol and 1 ± 0.087 kcal/mol, respectively.
As for “SAGGSAGGSAGGKMKPVTIYIKNKDGSTAKLKVINGKVEITFPNGEKKTISAKDLKIYKSAGGSAGGSAGGS [r10_1176_TrROS_Hall]”, the entries for the “folding stability dG unfold” value in data set [1], in data set [2] and in data set [3] were 0.631 ± 0.086 kcal/mol, 1.49 ± 0.13 kcal/mol and 1.22 ± 0.17 kcal/mol, respectively.
Take “SAGGSAGGSAGGKMLLIKITTKDGREFTLEISEEEAKKLAEELKKKFPNQKIEVEIVPLKSAGGSAGGSAGG [r7_349_TrROS_Hall]”: the figures for the “folding stability dG unfold” value in data set [1], in data set [2] and in data set [3] were 3.21 ± 0.18 kcal/mol, 3.16 ± 0.073 kcal/mol and 3.21 ± 0.14 kcal/mol, respectively.
For “SAGGSAGGSAGGKMRLYRFNLKTNKIEEVEAEPGEVIKITFPGKEIVLVVKDGKIELIPSAGGSAGGSAGGS [r10_817_TrROS_Hall]”, the “folding stability dG unfold” value in data set [1] came out at 0.464 ± 0.13 kcal/mol; in data set [2], 1.2 ± 0.22 kcal/mol; in data set [3] it was 0.884 ± 0.21 kcal/mol.
Take “SAGGSAGGSAGGKMYLIKVKVDGEEKLIKVKSLEEAKKLLEEKGYKIESVEIFEVEEEEESAGGSAGGSAGG [r7_726_TrROS_Hall]”: the “folding stability dG unfold” value worked out at 4.14 ± 0.23 kcal/mol in data set [1], 4.07 ± 0.059 kcal/mol in data set [2] and 4.09 ± 0.073 kcal/mol in data set [3].
For “SAGGSAGGSAGGKNKYYVRVKIKNPNGRTRKINFPFDDPDQIKEQAQKEGWKIDEVEPVSAGGSAGGSAGGS [r10_882_TrROS]”, the results for the “folding stability dG unfold” value in data set [1], in data set [2] and in data set [3] were -0.319 ± 0.25 kcal/mol, -0.064 ± 0.29 kcal/mol and -0.121 ± 0.18 kcal/mol, respectively.
In the case of “SAGGSAGGSAGGKPGEKKRYRFPAPKFELVSKVKVRVKVLNEDTNELYEKEVEVFVLKLTSAGGSAGGSAGG [r7_64_TrROS_Hall]”, the “folding stability dG unfold” value in data set [1] is 1.12 ± 0.045 kcal/mol; in data set [2], 2.77 ± 0.16 kcal/mol; in data set [3], 2.14 ± 0.21 kcal/mol.
Turning to “SAGGSAGGSAGGKPKLTLTLTLKRTVKNKNGKTTEKTLTLTLTFDSKEEAENALKELGFSAGGSAGGSAGGS [r10_1062_TrROS_Hall]”, the “folding stability dG unfold” value in data set [1] is 2.18 ± 0.033 kcal/mol; in data set [2], 2.92 ± 0.042 kcal/mol; in data set [3] it was 2.67 ± 0.099 kcal/mol.
For “SAGGSAGGSAGGKPLYLRITVKNKDGSEREIVVPLDTTIDDILAALPPNVTEVKIEVFPVSAGGSAGGSAGG [r7_288_TrROS_Hall]”, the “folding stability dG unfold” value turned out to be 3.36 ± 0.11 kcal/mol in data set [1], 3.52 ± 0.13 kcal/mol in data set [2] and 3.52 ± 0.13 kcal/mol in data set [3].
In the case of “SAGGSAGGSAGGKPNEVRVANIPIYRRLENGGWELIRPLPIVVPVDASVDFVLDAFKKYSAGGSAGGSAGGS [r10_470_TrMRF]”, the “folding stability dG unfold” value is 0.392 ± 0.041 kcal/mol in data set [1], 0.815 ± 0.076 kcal/mol in data set [2] and 0.658 ± 0.048 kcal/mol in data set [3].
As to “SAGGSAGGSAGGKPTITVTYDKENNTVTITFPDGSKIEITVPENATEEEVKKLVEELAKSAGGSAGGSAGGS [r10_33_TrROS_Hall]”, the “folding stability dG unfold” value in data set [1] came to 2.62 ± 0.18 kcal/mol; in data set [2], 3.13 ± 0.11 kcal/mol; in data set [3], 2.97 ± 0.22 kcal/mol.
Take “SAGGSAGGSAGGKTIRFKAKSPEEIAEKIKKGEEILTPDGKPVKITKVEPLPDGSVLITGSAGGSAGGSAGG [r11_48_TrMRF]”: the “folding stability dG unfold” value in data set [1] was found to be 0.0865 ± 0.17 kcal/mol; in data set [2], 0.588 ± 0.18 kcal/mol; in data set [3], 0.46 ± 0.081 kcal/mol.
Take “SAGGSAGGSAGGKTLTLEIEINGKLYKIEFSGDSIKITEIKVKPKPKKKEFFSEEELKKKSAGGSAGGSAGG [r7_748_TrROS_Hall]”: the “folding stability dG unfold” value was found to be 0.563 ± 0.089 kcal/mol in data set [1], 2.55 ± 0.13 kcal/mol in data set [2] and 1.87 ± 0.31 kcal/mol in data set [3].
As to “SAGGSAGGSAGGKTYKITVSSGDTYLTISIELPDGLVLTYKITPNSIEVEIKPLKDFNESAGGSAGGSAGGS [r10_1169_TrMRF]”, the “folding stability dG unfold” value in data set [1] came to 3.42 ± 0.19 kcal/mol; in data set [2], 5.3 ± 0.2 kcal/mol; in data set [3] it was 5.51 ± 0.43 kcal/mol.
With “SAGGSAGGSAGGKTYRVKVRIYNPETGEVLEIEVEVETDTEEEAKRAAENLARELLKKSSAGGSAGGSAGGS [r10_863_TrROS_Hall]”, the “folding stability dG unfold” value in data set [1] came out at 2.69 ± 0.045 kcal/mol; in data set [2] it was 3.7 ± 0.058 kcal/mol; in data set [3] it was 3.47 ± 0.12 kcal/mol.
As to “SAGGSAGGSAGGKTYTADEIKKIKKINGKWYVEIDGKTYEIPAKDIKIKKGDKIKIYPVSAGGSAGGSAGGS [r10_665_TrROS_Hall]”, the figures for the “folding stability dG unfold” value in data set [1], in data set [2] and in data set [3] were 1.45 ± 0.059 kcal/mol, 1.59 ± 0.091 kcal/mol and 1.57 ± 0.16 kcal/mol, respectively.
Turning to “SAGGSAGGSAGGKVEIYENPSTPYLVVVVYNPETGEKTVVLFKPDNPELAEKVAKELASSAGGSAGGSAGGS [r10_1117_TrMRF]”, the “folding stability dG unfold” value in data set [1] was 0.711 ± 0.077 kcal/mol; in data set [2], 1.81 ± 0.16 kcal/mol; in data set [3], 1.38 ± 0.11 kcal/mol.
As to “SAGGSAGGSAGGKVITVELPDDVTVTFFIPEDPDIVPVEVTPPDGSTLTLPAKDIRELLGSAGGSAGGSAGG [r7_769_TrMRF]”, the “folding stability dG unfold” value came out at 0.159 ± 0.049 kcal/mol in data set [1], 0.49 ± 0.12 kcal/mol in data set [2] and 0.364 ± 0.1 kcal/mol in data set [3].
The corresponding values for “SAGGSAGGSAGGKVKIVSVSYDPETGKLTVEVEIPNPKKLLTVTTDNPNIPAEEIAKKLASAGGSAGGSAGG [r7_833_TrMRF]” are 0.453 ± 0.091 kcal/mol, 0.058 ± 0.056 kcal/mol and 0.362 ± 0.15 kcal/mol.
With “SAGGSAGGSAGGKVTVTPDGRLVIEKPKVTVEPVEVEEVEVELELKLSPEELEELLKKLSAGGSAGGSAGGS [r10_1096_TrROS_Hall]”, the “folding stability dG unfold” value in data set [1] came out at 0.51 ± 0.17 kcal/mol; in data set [2] it was 0.745 ± 0.044 kcal/mol; in data set [3] it was 0.554 ± 0.19 kcal/mol.
The corresponding values for “SAGGSAGGSAGGKVVKFTRPDGKPVDAKKILSYDPDKPKLYVLVEDEGPVELREVDADKDSAGGSAGGSAGG [r7_236_TrMRF]” are -0.245 ± 0.22 kcal/mol, 0.379 ± 0.32 kcal/mol and 0.161 ± 0.23 kcal/mol.
The like results for “SAGGSAGGSAGGKVVKKVKVLTKTPKGGYKVIEVDFTDPSAVVEEAKKAGLEVLKVEEVSAGGSAGGSAGGS [r10_882_TrMRF]” were, in that order, -0.045 ± 0.079 kcal/mol, 1.05 ± 0.094 kcal/mol and 0.728 ± 0.098 kcal/mol.
Regarding “SAGGSAGGSAGGLAPAPDGSPVAVLLDDGRVVVFDPETAELYVAFVTPDSVRVVPLPLDLSAGGSAGGSAGG [r7_527_TrMRF]”, the “folding stability dG unfold” value in data set [1] was -0.565 ± 0.071 kcal/mol; in data set [2], 0.656 ± 0.038 kcal/mol; in data set [3] it was 0.332 ± 0.053 kcal/mol.
As to “SAGGSAGGSAGGLEEIRENGEALVFYPDGRVYRVDLKTGKITPPPGFKPENIVRVVFVKKSAGGSAGGSAGG [r7_566_TrMRF]”, the “folding stability dG unfold” value came out at 0.493 ± 0.1 kcal/mol in data set [1], 0.0292 ± 0.14 kcal/mol in data set [2] and 0.301 ± 0.076 kcal/mol in data set [3].
As for “SAGGSAGGSAGGLEELKKGFKKPVFVAKIEKEVRLLPNGDLIVRYKIEGPDLELELVFSSAGGSAGGSAGGS [r10_160_TrMRF]”, the “folding stability dG unfold” value in data set [1] was 2.6 ± 0.12 kcal/mol; in data set [2], 3.56 ± 0.14 kcal/mol; in data set [3], 3.28 ± 0.12 kcal/mol.
For the sequence “SAGGSAGGSAGGLEIEFWFFFPDEGYMIEVEWERDPDGPIEPTKITEIHPMPDGQPNPGFSAGGSAGGSAGG [r11_750_TrROS]”, the “folding stability dG unfold” value is 1.81 ± 0.059 kcal/mol in data set [1], 2 ± 0.04 kcal/mol in data set [2] and 1.94 ± 0.087 kcal/mol in data set [3].
As to “SAGGSAGGSAGGLGPDTPYATLSVTLTFTVRLKVRDPVTGKEYEIEYDVTLTFTFTVPASAGGSAGGSAGGS [r10_1116_TrMRF]”, the results for the “folding stability dG unfold” value in data set [1], in data set [2] and in data set [3] were 5.07 ± 0.54 kcal/mol, 5.84 ± 0.31 kcal/mol and 5.58 ± 0.4 kcal/mol, respectively.
The corresponding values for “SAGGSAGGSAGGLLKLKLKLKYEFTFKDENGNTYKVEKELTLVLELPPINETGKKNLVLSAGGSAGGSAGGS [r10_168_TrMRF]” are 2.07 ± 0.036 kcal/mol, 3.66 ± 0.063 kcal/mol and 3.12 ± 0.13 kcal/mol.
Take “SAGGSAGGSAGGLPDREILEVRVLNPEREETGLRVRVEVVLPDGPVTIELPAEEVKELASAGGSAGGSAGGS [r10_771_TrMRF]”: the “folding stability dG unfold” value in data set [1] is -0.0431 ± 0.068 kcal/mol; in data set [2], 1.03 ± 0.024 kcal/mol; in data set [3], 0.726 ± 0.071 kcal/mol.
On to “SAGGSAGGSAGGLPEDIELEVEPLEITLEDGSRVRILIARAPDPEIAAIDIEVFPPDDPKSAGGSAGGSAGG [r11_338_TrMRF]”, for which the entries for the “folding stability dG unfold” value in data set [1], in data set [2] and in data set [3] were 0.417 ± 0.11 kcal/mol, 0.51 ± 0.071 kcal/mol and 0.559 ± 0.13 kcal/mol, respectively.
As to “SAGGSAGGSAGGLPPDVRLRVRITRPDGTVLEFDAPADVEIFFPDVPPEWRIEVDAEDVSAGGSAGGSAGGS [r10_774_TrMRF]”, the figures for the “folding stability dG unfold” value in data set [1], in data set [2] and in data set [3] were 0.732 ± 0.061 kcal/mol, 2.49 ± 0.057 kcal/mol and 2.09 ± 0.16 kcal/mol, respectively.
In the case of “SAGGSAGGSAGGLPPGAKVKVEIEISYDDPFSGPTNEYNSFPVELNFEPPEPIPTDPRLNSAGGSAGGSAGG [r7_522_TrMRF]”, the “folding stability dG unfold” value in data set [1] is -0.683 ± 0.16 kcal/mol; in data set [2], -1.38 ± 0.55 kcal/mol; in data set [3] it was less than -1 kcal/mol.

Source of the values: the supplement of paper PMC12764529.
